In the RNAGym collection of RNA variant scans (doi:10.1073/pnas.2313332121):
Variants at the floor of the assay were thinned out.

B1: TPR 5TU (parent)
chain: GGAUCUUCUCGAUCUAACAAAAAAGACAAAUCUGCCACAAAGCUUGAGAGCAUCUUCGGAUGCAGAGGCGGCAGCCUUCGGUGGCGCGAUAGCGCCAACGUUCUCAACUAUGACACGCAAAACGCGUGCUCCGUUGAAUGGAGUUUAUCAUG

Variants of: B1
Assay: polymerase ribozyme fitness, log enrichment relative to wild type (log ratio); higher = more active; in vitro selection for triplet polymerase activity
How it was run: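 The heterodimeric triplet polymerase ribozyme's subunits were each mutagenized into PCR-built libraries and transcribed. Every library was selected once, in triplicate, by annealing with a biotinylated primer, the partner subunit and triplets, incubating frozen at −7 °C, gel-excising extended constructs, capturing on streptavidin beads and running RT-PCR. Input and output libraries were Illumina-sequenced, with genotypes kept only at ≥10 input reads and ≥1 read per output. Fitness, from inverse-variance-weighted replicate averages, is the base-2 logarithm of genotype enrichment over wild-type enrichment.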

| Variant | polymerase ribozyme fitness (log ratio) |
| --- | --- |
| GGAUCUUCUCGAUCUAACAAAAAAGACAAAUCUGCCACAAAGCUUGAGAGCAUCUUCGUAUGCAGAGGCGGCAGCCUUCGGUGGCGCGAUAGCGCCAACGUUCUCAACUAUGACACGCAAAACGCGUGCUCCGUUGAACGGAGUUUAUCAUG [G59U U139C] | -3.8 |
| GGAUCUUCUCGAUCUAACAAAAAAGACAAAUCUGCCACAAAGCUUGAGAGCAUCUUCGUAUGCAGAGGCGGCAGCCUUCGGUGGCACGAUAGCGCCAACGUUCUCAACUAUGACACGCAAAACGCGUGCUCCGUUGAAUGGAGUUUUUCAUG [G59U G86A A147U] | -0.0426 |
| GGAUCUUCUCGAUCUAACAAAAAAGACAAAUCUGCCACAAAGCUUGAGAGCAUCUUCGUAUGCAGAGGCGGCAGCCUUCGGUGGCGCGAUAGUGCCAACGUUCUCAACUAUGAGACGCAAAACGCGUGCUCCGUUGAAUGGAGUUUAUCAUG [G59U C93U C114G] | -3.92 |
| GGAUCUUCUCGAUCUAACAAAAAAGACAAAUCUGCCACAAAGCUUGAGAGCAUCUUCGUAUGCAGAGGCGGCAGCCUUCGGUGGCACGAUAGCGCCAACGUUCUCAACUAUGACACGGAAAACGCGUGCUCCGUUGAAUGGAGUUUAUCAUG [G59U G86A C118G] | -2.48 |
| GGAUCUUCUCGAUCUAACAAAAAAGACAAAUCUGCCACAAAGCUUGAGAGCAUCUUCGUAUGCAGACGCGGCAGCCUUCGGUGGCGCGAUAGCGCCAACGUUCUCAACUAUGACACGCAAAACGCGUGCUCCGUUAAAUGGAGUUUAUCAUG [G59U G67C G136A] | ≤ -4.2 |
| GGAUCUUCUCGAUCUAACAAAAAAGACAAAUCUGCCACAAAGCUUGAGAGCAUCUUCGGCUGCAGAGGCGGCAGCCUUCGGUGGAGCGAUAGCGCCAACGUUCUCAACUAUGACACGCAAAACGGGUGCUCCGUUGAAUGGAGGUUAUCAUG [A60C C85A C125G U144G] | -2.67 |
| GGAUCUUCUCGAUCUAACAAAAAAGACAAAUCUGCCACAAAGCUUGAGAGCAUCUUCGGCUGUAGAGGCGGCAGCCCUCGGUGGCGCGAUAGCGCCAACGUUCUCAACUAUGACACGCAAAACGCGUUCUCCGUUGAAUGGAGUUUAUCGUA [A60C C63U U77C G128U A150G G152A] | ≤ -4.2 |
| GGAUCUUCUCGAUCUAACAAAAAAGACAAAUCUGCCACAAAGCUUGAGAGCAUCUUCGUAUGCAGAGGCGGCAGCCUUCGGUGGCGCGAUAGCGCCAACGUUCUCAACUAUGACACGCAAAACGCGUGCUCCGUUGAAUGGAGUUUAUCAUC [G59U G152C] | -2.8 |
| GGAUCUUCUCGAUCUAACAAAAAAGACAAAUCUGCCACAAAGCUUGAGAGCAUCUUCGUAUGCAGAGGCGGCAGCCUGAGGUGGCGUGAUAGCGCCAACGUUCUCAACGUUGACACGCAAAACGCGUGCUCCGUUGAAUGGAGUUUAUCAUG [G59U U78G C79A C87U U109G A110U] | -3.99 |
| GGAUCUUCUCGAUCUAACAAAAAAGACAAAUCUGCCACAAAGCUUGAGAGCAUCUUCGUAUGCAGAGGCGGCAGCCUUCGGUGGCGCCAUAGCGCCAACGUUCUCAACUAUGACAGGCAAAACGCGUGCUCCGUUGAAUGGAGUUUAUCAUG [G59U G88C C116G] | -3.85 |
| GGAUCUUCUCGAUCUAACAAAAAAGACAAAUCUGCCACAAAGCUUGAGAGCAUCUUCGGCUGCAGAGGCGGCGGCCUUCGGUGGCGCGAUAGUGCCAACGUUCUCAACUAUGACACGCAAAACGCGUGCUCCGUUGAAUGGAGUUUAUCAUG [A60C A73G C93U] | ≤ -4.2 |
| GGAUCUUCUCGAUCUAACAAAAAAGACAAAUCUGCCACAAAGCUUGAGAGCAUCUUCGUAUGCAGAGGCGGCAGCCUUCGGUGGCGCGAUAGCGCUAACGUUCUCAACUAUGACACGCAAAACGCGUGCUCCGUUGAAUGGGGUUUAUCAUG [G59U C96U A142G] | -1.66 |
| GGAUCUUCUCGAUCUAACAAAAAAGACAAAUCUGCCACAAAGCUUGAGAGCAUCUUCGGCUGCAGAGGCGGCAGCCUUCGGUGGCGCGAUUGCGCCAACGUUCUCAACUAUGACACGAAAAACGCGUGCUCCGUUGAAUGGAGUUUAUCAUG [A60C A91U C118A] | ≤ -4.2 |
| GGAUCUUCUCGAUCUAACAAAAAAGACAAAUCUGCCACAAAGCUUGAGAGCAUCUUCGGCUGCAGAGGCGGCAGCCUUCGGUGGCGCGAUAGCGCCAACGUUCUCAACUAUGACACGCAAAACGCGUGCUCCGUUGAAUGGAGUUUAUCAUG [A60C] | -0.597 |
| GGAUCUUCUCGAUCUAACAAAAAAGACAAAUCUGCCACAAAGCUUGAGAGCAUCUUCGGCUGCAGAGGCGGCAGCUUUCGGUGGCGCGAUAGCGCCAACGUUCUCAACUAUGACACGCAAAACGCGUGCUCCGUUGAAUGGAGUUUAUCAUG [A60C C76U] | -3.17 |
| GGAUCUUCUCGAUCUAACAAAAAAGACAAAUCUGCCACAAAGCUUGAGAGCAUCUUCGUAUGCAGAGGCGGCAGCCUUCGGUGGCGCGAUAGCGCCAAUGUUCUCAACUAUGACACGCAAAACGCGUGCUCUGUUGAAUGGAGUUUAUCAUG [G59U C99U C132U] | -1.59 |
| GGAUCUUCUCGAUCUAACAAAAAAGACAAAUCUGCCACAAAGCUUGAGAGCAUCUUCGGCUGCAGAGGCGGCAGCCUUCGGUGGCGCGAUAGCGCCUACGUUCUCAACUAUGACACGCAAAACGCGUGCUCCGUUGAAUGGAGUUUAUCAUG [A60C A97U] | -1.64 |
| GGAUCUUCUCGAUCUAACAAAAAAGACAAAUCUGCCACAAAGCUUGAGAGCAUCUUCGGCUGCAGAGGCGGCGGCCUUCGGUGGCGCGAUAGCGCUAACGGUCUCAACUAUGACACGCAAAACGCGUGCUCCGUUGAAUGGAGUUUAUCAUG [A60C A73G C96U U101G] | -3.45 |
| GGAUCUUCUCGAUCUAACAAAAAAGACAAAUCUGCCACAAAGCUUGAGAGCAUCUUCGGCUGCAGAGGCGGCAGCAUUCGGUGGCGCGAUAUCGACAACGUUCUCAACUAUGACACGCAAAACGCGUGCUCCGUUGAAUGGAGUGUAUGAUG [A60C C76A G92U C95A U145G C149G] | ≤ -4.2 |
